From article PMC9143595
Substitutions are numbered along the chain they refer to.

B1: RBD-1C (CoV2-RBD-1) (ssDNA)
DNA: CAGCACCGACCTTGTGCTTTGGGAGTGCTGGTCCAAGGGCGTTAATGGACA
modifications: 5'-amino-modifier C6
B2: RBD-1CM1 (ssDNA)
DNA: B1 DNA with C34T, G47A
modifications: 5'-amino-modifier C6
B3: RBD-1CM2 (ssDNA)
DNA: B1 DNA with G41C, A44G
modifications: 5'-amino-modifier C6

Molecular target: SARS-CoV-2 spike protein S1 subunit (SARS-CoV-2, UniProt P0DTC2 14-685)
Test: QCM
Conditions: protein: commercial

| Binder | Ka |
| --- | --- |
| B1 | 1 10^5 M-1 |
| B2 | 1.2 10^5 M-1 |
| B3 | 1.2 10^5 M-1 |
